# Assay results as given in patent publication US20120065365A1, “Stable Radiopharmaceutical Compositions and Methods for Their Preparation” (BRACCO IMAGING S.P.A., priority 2003, published 2012).
# Like-named read-outs stand apart in the source and are kept apart here.
# Experiments:
# [1] = assay type: physicochemical; conditions: 55 mCi/2 ml, 1 mL radiolysis protecting solution (L-cysteine) added after complex formation, room temperature
# [2] = assay type: physicochemical; conditions: 50 mCi/2 mL, Radiolysis Protecting Solution, room temperature
# Protocol: ^177Lu-A and ^177Lu-B were prepared at a 50 mCi level as described in EXAMPLE 4. Immediately after cooling the reaction mixtures to room temperature, 1 mL of a Radiolysis Protecting Solution was added, containing 10 mg/mL gentisic Acid; 50 mg/mL ascorbic acid sodium salt, 2 mg/mL HSA, (2 mg/mL or 3.52 mg/mL) L-cysteine, 0.9% (v/v) benzyl alcohol and 1 mg/mL of Na2EDTA.2H2O in 0.05 M, pH 5.3 citrate buffer. The reaction vials were stored in the autosampler chamber and the stability was analysed by RP-HPLC over time using HPLC Methods 3 [^177Lu-A] or 4 [^177Lu-B]. Similar results were obtained for ^177Lu-B.
# [3] = assay type: physicochemical; conditions: 50 mCi/2 mL in Radiolysis Protecting Solution containing L-methionine, room temperature
# Protocol: The injection volume was 20 μL.
# A Radiolysis Protecting Solution was prepared to contain 10 mg/mL gentisic acid; 50 mg/mL ascorbic acid sodium salt; 2 mg/mL HSA; 2.98 mg/mL L-methionine, 0.9% (v:v) benzyl alcohol and 1 mg/mL of Na2EDTA.2H2O in 0.05 M, pH 5.3 citrate buffer. […] The mixture was incubated at 100° C. for 5 min, and then cooled to room temperature with a water bath. A 1-mL aliquot of the Radiolysis Protecting Solution was immediately added. The reaction vial was stored in an autosampler chamber and the stability was analyzed by Reversed Phase HPLC over time, using HPLC Methods 3 and 4. The results obtained for ^177Lu-B are shown in the chromatograms in FIG. 9.
# [4] = assay type: physicochemical; conditions: 50 mCi/2 mL, Radiolysis Protecting Solution with 0 mg/mL L-cysteine, room temperature
# Protocol: ^177Lu-A was prepared at a 50 mCi level as described in EXAMPLE 4. Immediately after cooling the reaction mixture to room temperature, 1 mL of a Radiolysis Protecting Solution was added, that contained 10 mg/mL gentisic acid; 50 mg/mL ascorbic acid sodium salt; 2 mg/mL HSA; 0.9% (v:v) benzyl alcohol and 1 mg/mL of Na2EDTA.2H2O in 0.05 M, pH 3.3 citrate buffer. The reaction vial was stored in an autosampler chamber and the stability was analysed by RP-HPLC over time.
# [5] = Stability in Radiolysis Protecting Solution containing methionine (FIG. 4 and similar study); assay type: physicochemical; conditions: methionine in the radiolysis protecting solution increased to 3 mg/mL
# Protocol: Formulations stabilized by such cocktails maintained excellent radiochemical purity (RCP) values (>95% RCP) for as long as 5 days at room temperature. This stabilizing cocktail is added immediately after formation of the radioactive complex, so would be the second vial of a two-vial kit.
# [6] = assay type: physicochemical; conditions: Radiolysis Protecting Solution containing L-selenomethionine, room temperature
# Protocol: ^177Lu-A and ^177Lu-B were prepared at a 50 mCi level as described in EXAMPLE 4. Immediately after cooling the reaction mixtures to room temperature, 1 mL of a Radiolysis Protecting solution was added, containing 10 mg/mL gentisic acid; 50 mg/mL ascorbic acid sodium salt; 2 mg/mL HSA; 3.92 mg/mL L-selenomethionine, 0.9% (v:v) benzyl alcohol and 1 mg/mL of Na2EDTA.2H2O in 0.05 M, pH 5.3 citrate buffer. The reaction vials were stored in the autosampler chamber and the stability was analysed by RP-HPLC over time using HPLC Methods 3 [^177Lu-A] or 4 [^177Lu-B].
substance,measurement,setting,value
^177Lu-A: the ^177Lu complex of DOTA-Gly-ACA-Gln-Trp-Ala-Val-Gly-His-Leu-Met-NH2,RCP for 5 days,[1],> 95%
same,% RCP 0-d,[2]; L-cysteine 1.0 mg/mL,100%
same,% RCP 1-d,[2]; L-cysteine 1.0 mg/mL,99.9%
same,% RCP 2-d,[2]; L-cysteine 1.0 mg/mL,98.4%
same,% RCP 3-d,[2]; L-cysteine 1.0 mg/mL,97.5%
same,% RCP 5-d,[2]; L-cysteine 1.0 mg/mL,96.9%
same,% RCP 0-d,[2]; L-cysteine 1.75 mg/mL,100%
same,% RCP 1-d,[2]; L-cysteine 1.75 mg/mL,99.9%
same,% RCP 2-d,[2]; L-cysteine 1.75 mg/mL,98.9%
same,% RCP 3-d,[2]; L-cysteine 1.75 mg/mL,95.8%
same,% RCP 5-d,[2]; L-cysteine 1.75 mg/mL,93.3%
same,% RCP 0-d,[3]; 0 d,100%
same,% RCP 1-d,[3]; 1 d,100%
same,% RCP 2-d,[3]; 2 d,100%
same,% RCP 5-d,[3]; 5 d,100%
same,% RCP 0-d (first value of cell),[4]; 0 d,100/100%
same,% RCP 0-d (second value of cell),[4]; 0 d,100/100%
same,% RCP 1-d (first value of cell),[4]; 1 d,94.9%
same,% RCP 1-d (second value of cell),[4]; 1 d,99.2%
same,% RCP 2-d (first value of cell),[4]; 2 d,93.6%
same,% RCP 2-d (second value of cell),[4]; 2 d,97.3%
same,% RCP 3-d (second value of cell),[4]; 3 d,ND/95.1%
same,% RCP 5-d (first value of cell),[4]; 5 d,90.4%
same,% RCP 5-d (second value of cell),[4]; 5 d,92.9%
same,RCP (effective radiostabilization),[5],> 95%
same,% RCP 0-d,"[6]; 50 mCi level, 0 d",97.6%
same,% RCP 1-d,[6]; 1 d,98.2%
same,% RCP 2-d,[6]; 2 d,97.5%
same,% RCP 3-d,[6]; 3 d,97.8%
same,% RCP 5-d,[6]; 5 d,99.4%
